In the Human Domainome abundance scans (Beltran et al. 2025):
± gives the uncertainty stated by the source.

B1: Chromodomain-helicase-DNA-binding protein 3, residues 374 to 426; numbered along this chain, Q12873 (parent)
chain: YETDHQDYCEVCQQGGEIILCDTCPRAYHLVCLDPELDRAPEGKWSCPHCEKE

Variants of: B1
Experiment: abundance fitness (aPCA) (normalised: wild type 0, dead -1); higher = more abundant; growth selection in yeast, the domain comes from the species named
Details: Homo sapiens

Abundance fitness, by site and new letter:
C32: T -0.948 ± 0.12 | H -0.163 ± 0.085 | V -1.2 ± 0.15 | K -0.958 ± 0.21 | M -0.94 ± 0.18 | W -0.502 ± 0.15 | L -0.986 ± 0.095 | Q -0.821 ± 0.15 | R -1.06 ± 0.12 | D -0.718 ± 0.16 | S -0.68 ± 0.086 | N -0.797 ± 0.13 | I -1.06 ± 0.12 | E -0.663 ± 0.24 | P -0.957 ± 0.11 | F -1.05 ± 0.11
C47: G -0.767 ± 0.11 | P -1.05 ± 0.22 | H -1.07 ± 0.38 | R -0.835 ± 0.12 | A -1.06 ± 0.15 | Q -0.835 ± 0.31 | D -0.512 ± 0.21 | E -1.08 ± 0.21 | F -0.465 ± 0.19 | V -0.753 ± 0.12 | Y -0.972 ± 0.23 | M -0.657 ± 0.18 | W -0.847 ± 0.18 | K -1.02 ± 0.28 | S -0.814 ± 0.16 | T -0.931 ± 0.2
G43: D -0.031 ± 0.16 | V 0.054 ± 0.1 | F -0.257 ± 0.19 | R -0.142 ± 0.088 | K 0.119 ± 0.19 | S -0.043 ± 0.096 | P 0.057 ± 0.17 | I -0.368 ± 0.21 | M -0.039 ± 0.21 | E 0.22 ± 0.15 | A -0.314 ± 0.15 | N 0.204 ± 0.14 | H -0.12 ± 0.16 | Y -0.277 ± 0.17 | Q -0.001 ± 0.24 | C -0.369 ± 0.13 | T -0.128 ± 0.18 | L -0.343 ± 0.12
E42: M -0.203 ± 0.17 | R -0.232 ± 0.11 | P -0.138 ± 0.2 | V -0.044 ± 0.1 | G 0.003 ± 0.1 | D -0.484 ± 0.19 | Y -0.219 ± 0.16 | F -0.296 ± 0.17 | A -0.171 ± 0.1 | Q -0.088 ± 0.17 | W -0.396 ± 0.14 | S -0.06 ± 0.12 | T -0.173 ± 0.2 | L 0.066 ± 0.1 | K -0.181 ± 0.22 | H 0.164 ± 0.21 | C -0.005 ± 0.13
P35: S -0.068 ± 0.11 | H -0.052 ± 0.31 | G -0.044 ± 0.1 | N -0.196 ± 0.24 | V 0.029 ± 0.088 | L -0.11 ± 0.098 | I -0.3 ± 0.23 | W -0.167 ± 0.16 | D 0.039 ± 0.14 | C -0.117 ± 0.17 | Y 0.015 ± 0.17 | M -0.095 ± 0.15 | K -0.183 ± 0.15 | E -0.306 ± 0.11 | T -0.013 ± 0.14
H49: L -0.128 ± 0.11 | R -0.143 ± 0.1 | G -0.033 ± 0.093 | F -0.244 ± 0.33 | Y -0.32 ± 0.23 | E -0.062 ± 0.17 | A -0.183 ± 0.16 | Q -0.034 ± 0.27 | P -0.334 ± 0.24 | T -0.011 ± 0.23 | C -0.456 ± 0.22 | V 0.126 ± 0.12 | K -0.127 ± 0.2 | W -0.234 ± 0.14 | I 0.221 ± 0.39 | N 0.217 ± 0.29 | M -0.797 ± 0.45 | D -0.185 ± 0.15
W45: N 0.035 ± 0.19 | F 0.158 ± 0.17 | G -0.312 ± 0.1 | A -0.037 ± 0.16 | H -0.101 ± 0.18 | R -0.204 ± 0.1 | Y 0.171 ± 0.15 | Q 0.19 ± 0.15 | T -0.143 ± 0.17 | K -0.072 ± 0.16 | L -0.218 ± 0.1 | I -0.221 ± 0.17 | S -0.224 ± 0.12 | C -0.182 ± 0.17 | E -0.099 ± 0.15 | M -0.268 ± 0.16
R39: G -0.123 ± 0.13 | F -0.254 ± 0.14 | A 0.068 ± 0.14 | L -0.156 ± 0.14 | M -0.009 ± 0.18 | H -0.248 ± 0.25 | S 0.01 ± 0.12 | V -0.248 ± 0.11 | C -0.221 ± 0.17 | I 0.149 ± 0.17 | W -0.2 ± 0.19 | D -0.138 ± 0.17 | Q -0.182 ± 0.26 | Y -0.027 ± 0.19 | P -0.084 ± 0.24 | N 0.034 ± 0.21 | T -0.037 ± 0.17
E36: S -0.335 ± 0.13 | A -0.029 ± 0.13 | D -0.507 ± 0.2 | L -0.114 ± 0.11 | T -0.172 ± 0.26 | H -0.15 ± 0.23 | R 0.018 ± 0.11 | F -0.083 ± 0.19 | N 0.143 ± 0.27 | G -0.009 ± 0.1 | M -0.024 ± 0.2 | V -0.018 ± 0.1 | Y -0.405 ± 0.32 | C 0.182 ± 0.19 | P -0.039 ± 0.15 | Q -0.193 ± 0.15 | I -0.145 ± 0.26 | W -0.478 ± 0.2
K44: W -0.525 ± 0.14 | I 0.363 ± 0.25 | Q 0.038 ± 0.14 | D -0.329 ± 0.24 | N -0.492 ± 0.45 | R 0.043 ± 0.1 | V -0.39 ± 0.13 | P -0.264 ± 0.16 | L -0.011 ± 0.11 | Y -0.395 ± 0.26 | T -0.304 ± 0.18 | F -0.136 ± 0.37 | E -0.096 ± 0.13 | G 0.101 ± 0.092 | C -0.071 ± 0.14 | S 0.077 ± 0.13 | M -0.011 ± 0.19
D34: G -0.156 ± 0.099 | V -0.1 ± 0.08 | R -0.197 ± 0.093 | Q -0.112 ± 0.15 | I -0.383 ± 0.14 | Y -0.327 ± 0.13 | H -0.385 ± 0.14 | A -0.198 ± 0.082 | P -0.089 ± 0.11 | N -0.189 ± 0.11 | L -0.083 ± 0.092 | S -0.127 ± 0.091 | E -0.011 ± 0.11 | C -0.316 ± 0.15 | F -0.287 ± 0.12 | M -0.494 ± 0.13 | W -0.747 ± 0.22 | K -0.079 ± 0.12
L37: S -0.295 ± 0.1 | Q -0.21 ± 0.16 | N -0.189 ± 0.24 | H -0.037 ± 0.17 | D -0.228 ± 0.17 | W -0.298 ± 0.2 | E -0.732 ± 0.28 | G -0.108 ± 0.1 | F -0.426 ± 0.16 | C -0.142 ± 0.14 | I -0.191 ± 0.24 | R -0.094 ± 0.11 | T -0.275 ± 0.14 | P -0.154 ± 0.12 | Y 0.073 ± 0.15 | K -0.116 ± 0.18 | V -0.143 ± 0.12
A40: C -0.33 ± 0.13 | Y -0.38 ± 0.17 | G -0.398 ± 0.1 | S -0.221 ± 0.1 | T -0.162 ± 0.17 | N -0.169 ± 0.26 | D 0.026 ± 0.19 | E 0.13 ± 0.12 | P -0.138 ± 0.15 | K -0.188 ± 0.19 | V -0.081 ± 0.1 | M -0.004 ± 0.13 | F -0.44 ± 0.16 | H -0.412 ± 0.22 | Q 0.126 ± 0.14 | R -0.129 ± 0.11 | L -0.107 ± 0.1 | W -0.346 ± 0.17
P48: V -0.139 ± 0.11 | H -0.599 ± 0.28 | Q -0.078 ± 0.2 | K -0.109 ± 0.13 | F -0.528 ± 0.24 | C -0.203 ± 0.15 | A -0.002 ± 0.11 | E -0.074 ± 0.14 | T -0.24 ± 0.16 | N -0.014 ± 0.18 | S -0.217 ± 0.11 | G -0.031 ± 0.097 | M -0.07 ± 0.12 | D -0.416 ± 0.18 | W -0.358 ± 0.14
S46: K -0.084 ± 0.17 | M -0.186 ± 0.18 | E -0.122 ± 0.12 | I 0.12 ± 0.16 | T -0.073 ± 0.14 | D -0.135 ± 0.14 | H -0.526 ± 0.32 | A -0.064 ± 0.11 | G -0.03 ± 0.087 | F -0.104 ± 0.14 | L -0.033 ± 0.1 | W -0.043 ± 0.17 | R -0.037 ± 0.097 | V -0.085 ± 0.1 | C -0.308 ± 0.14 | Y 0.08 ± 0.15 | Q 0.127 ± 0.18 | P -0.327 ± 0.19
P41: W -0.317 ± 0.12 | K -0.25 ± 0.22 | M -0.202 ± 0.15 | T -0.06 ± 0.14 | C -0.344 ± 0.17 | I -0.083 ± 0.17 | A -0.114 ± 0.12 | R -0.093 ± 0.092 | Y -0.153 ± 0.19 | E -0.092 ± 0.15 | N -0.026 ± 0.19 | S -0.045 ± 0.11 | D -0.368 ± 0.2 | G 0.028 ± 0.097 | L 0.015 ± 0.1 | Q -0.073 ± 0.17 | H -0.374 ± 0.23 | F -0.25 ± 0.2
L33: N -0.326 ± 0.14 | S -0.286 ± 0.11 | F -0.449 ± 0.14 | E -0.365 ± 0.18 | T -0.208 ± 0.1 | I -0.214 ± 0.14 | K -0.663 ± 0.15 | C 0.072 ± 0.12 | D -0.755 ± 0.29 | R -0.39 ± 0.091 | P -0.427 ± 0.12 | V -0.182 ± 0.13 | M -0.148 ± 0.13 | Y -0.133 ± 0.15 | H -0.146 ± 0.15 | G 0.07 ± 0.1 | A -0.12 ± 0.12
C50: D -0.176 ± 0.26 | N -0.664 ± 0.38 | Q -0.57 ± 0.22 | F -0.682 ± 0.31 | S -0.66 ± 0.14 | W -0.565 ± 0.13 | E -0.547 ± 0.16 | L -0.468 ± 0.11 | Y -0.791 ± 0.15 | P -0.424 ± 0.16 | A -0.417 ± 0.13 | K -0.923 ± 0.23 | V -0.598 ± 0.12 | H -0.291 ± 0.33 | G -0.383 ± 0.12 | I -0.564 ± 0.28
D38: H 0.066 ± 0.43 | S -0.09 ± 0.13 | W -0.319 ± 0.18 | G -0.142 ± 0.15 | P -0.129 ± 0.15 | M -0.416 ± 0.18 | Q -0.326 ± 0.19 | C -0.259 ± 0.19 | L -0.216 ± 0.11 | T -0.169 ± 0.21 | A -0.035 ± 0.15 | R -0.352 ± 0.13 | N -0.552 ± 0.16 | K -0.518 ± 0.24 | Y -0.522 ± 0.28 | V 0.011 ± 0.12 | F -0.082 ± 0.22
E51: T -0.156 ± 0.14 | I -0.438 ± 0.26 | D -0.37 ± 0.21 | Q -0.533 ± 0.2 | F -0.205 ± 0.23 | M -0.396 ± 0.16 | S -0.158 ± 0.14 | L -0.039 ± 0.1 | P -0.194 ± 0.15 | R -0.215 ± 0.12 | C -0.137 ± 0.17 | A -0.215 ± 0.095
